Measured values published in paper PMC2918618, “Characterization of the TnsD-attTn7 complex that promotes site-specific insertion of Tn7” (Mobile DNA, 2010).
Substitutions are numbered along the chain they refer to.

Experiments:
Test in all cases: EMSA; Gel-shift buffer not given (as described in ref. 6); TnsD stored in 500 mM KCl, 50 mM Tris-HCl pH 8.0, 1 mM EDTA, 2 mM DTT, 25% glycerol
[1] = biological target: T1, TnsD A486H (Escherichia coli (transposon Tn7), UniProt P13991 1-508, A486H); conditions: protein: recombinant; tags: intein-chitin tag, cleaved with DTT
T1 sequence: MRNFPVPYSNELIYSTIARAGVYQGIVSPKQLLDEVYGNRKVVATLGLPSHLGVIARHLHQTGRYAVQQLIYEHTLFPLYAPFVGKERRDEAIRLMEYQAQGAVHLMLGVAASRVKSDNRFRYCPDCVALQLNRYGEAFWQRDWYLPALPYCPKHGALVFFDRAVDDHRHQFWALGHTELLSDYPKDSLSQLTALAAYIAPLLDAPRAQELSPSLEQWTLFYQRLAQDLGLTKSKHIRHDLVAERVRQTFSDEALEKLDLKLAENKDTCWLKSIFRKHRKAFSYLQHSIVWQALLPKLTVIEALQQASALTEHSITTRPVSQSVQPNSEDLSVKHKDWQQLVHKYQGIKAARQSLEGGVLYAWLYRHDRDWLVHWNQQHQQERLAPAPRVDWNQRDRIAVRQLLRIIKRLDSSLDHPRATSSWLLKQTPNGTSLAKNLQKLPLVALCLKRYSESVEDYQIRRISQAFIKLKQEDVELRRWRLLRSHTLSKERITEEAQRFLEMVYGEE

[2] = biological target: T2, TnsD Q340Z (Escherichia coli (transposon Tn7), UniProt P13991 1-339); conditions: protein: recombinant
T2 sequence: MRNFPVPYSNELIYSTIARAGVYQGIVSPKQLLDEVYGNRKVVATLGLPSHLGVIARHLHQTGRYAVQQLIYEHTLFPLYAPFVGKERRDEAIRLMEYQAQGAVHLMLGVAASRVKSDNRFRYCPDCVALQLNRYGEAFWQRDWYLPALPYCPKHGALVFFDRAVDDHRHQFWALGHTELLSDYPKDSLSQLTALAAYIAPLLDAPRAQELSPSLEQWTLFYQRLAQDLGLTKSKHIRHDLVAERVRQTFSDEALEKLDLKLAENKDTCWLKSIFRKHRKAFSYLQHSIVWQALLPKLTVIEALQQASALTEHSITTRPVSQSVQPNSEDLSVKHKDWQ

[3] = biological target: T3, TnsD M96I (Escherichia coli (transposon Tn7), UniProt P13991 1-508, M96I); conditions: protein: recombinant; tags: intein-chitin tag, cleaved with DTT
T3 sequence: T1 sequence with M96I, H486A

[4] = biological target: T4, TnsD P147L (Escherichia coli (transposon Tn7), UniProt P13991 1-508, P147L); conditions: protein: recombinant; tags: intein-chitin tag, cleaved with DTT
T4 sequence: T1 sequence with P147L, H486A

[5] = biological target: T5, TnsD C447Y (Escherichia coli (transposon Tn7), UniProt P13991 1-508, C447Y); conditions: protein: recombinant; tags: intein-chitin tag, cleaved with DTT
T5 sequence: T1 sequence with C447Y, H486A

B1: attTn7 wt (+23 to +58) (dsDNA)
DNA 1: CCGCGTAACCTGGCAAAATCGGTTACGGTTGAGTAA
DNA 2: TTACTCAACCGTAACCGATTTTGCCAGGTTACGCGG
- binding signal [1]: 0.1 relative to wt
- binding signal [2]: < 0.05 relative to wt
- binding signal [3]: 0.3 relative to wt
- binding signal [4]: 0.07 relative to wt
- binding signal [5]: 0.7 relative to wt
